Experimental data: article PMC10195879
Where two headings read alike, the source gives them in different places.

Experiments:
[1] = biological target: GMPCPP-stabilized microtubules (bovine brain tubulin, TAMRA-labeled) (bovine) (UniProt Q6B856); assay: single-molecule TIRF microscopy
[2] = biological target: GMPCPP-stabilized microtubules (bovine brain tubulin, TAMRA-labeled) (bovine) (UniProt Q6B856); assay: single-molecule TIRF microscopy; remark: listed apart in the source

Chain of His-EGFP-L-TOG2-S (minimal construct of CLASP2α: short linker region, TOG2 domain and serine-arginine-rich region) (domain or fragment) (O75122 whole entry, the tested form may be a part): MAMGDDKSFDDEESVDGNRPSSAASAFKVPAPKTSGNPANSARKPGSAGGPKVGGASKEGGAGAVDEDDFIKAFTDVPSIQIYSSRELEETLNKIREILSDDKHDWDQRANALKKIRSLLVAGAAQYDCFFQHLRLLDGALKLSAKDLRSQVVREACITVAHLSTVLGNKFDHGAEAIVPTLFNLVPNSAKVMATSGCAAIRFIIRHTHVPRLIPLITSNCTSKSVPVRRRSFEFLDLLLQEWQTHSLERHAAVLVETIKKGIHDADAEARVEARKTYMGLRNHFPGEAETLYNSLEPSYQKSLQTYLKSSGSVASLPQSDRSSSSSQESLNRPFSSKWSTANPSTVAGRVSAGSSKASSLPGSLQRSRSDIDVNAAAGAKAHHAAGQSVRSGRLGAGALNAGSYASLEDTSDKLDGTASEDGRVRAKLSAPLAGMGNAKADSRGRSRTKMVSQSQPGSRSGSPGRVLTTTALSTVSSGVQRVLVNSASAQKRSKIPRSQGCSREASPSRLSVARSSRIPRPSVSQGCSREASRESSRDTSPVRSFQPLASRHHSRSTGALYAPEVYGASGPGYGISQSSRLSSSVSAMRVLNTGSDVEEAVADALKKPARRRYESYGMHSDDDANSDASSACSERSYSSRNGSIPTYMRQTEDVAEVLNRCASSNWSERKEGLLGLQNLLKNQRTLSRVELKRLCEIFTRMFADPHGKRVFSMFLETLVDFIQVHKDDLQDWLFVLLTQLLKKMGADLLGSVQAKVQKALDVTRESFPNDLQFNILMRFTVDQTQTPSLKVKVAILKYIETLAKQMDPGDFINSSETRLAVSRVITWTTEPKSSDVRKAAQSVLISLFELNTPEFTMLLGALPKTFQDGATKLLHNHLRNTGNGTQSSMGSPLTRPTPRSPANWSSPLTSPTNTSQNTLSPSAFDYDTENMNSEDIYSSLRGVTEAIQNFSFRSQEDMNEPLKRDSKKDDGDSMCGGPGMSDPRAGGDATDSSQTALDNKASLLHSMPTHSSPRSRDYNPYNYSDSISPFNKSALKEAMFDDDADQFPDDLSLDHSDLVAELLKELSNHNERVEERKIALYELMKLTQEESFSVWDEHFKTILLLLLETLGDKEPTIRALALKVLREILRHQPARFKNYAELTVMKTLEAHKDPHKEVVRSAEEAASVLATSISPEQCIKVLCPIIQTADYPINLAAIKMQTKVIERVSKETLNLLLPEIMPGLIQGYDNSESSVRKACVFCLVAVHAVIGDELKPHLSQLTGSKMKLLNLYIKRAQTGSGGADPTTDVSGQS

mean dwell time on microtubule ends [1]: 3.8 s | mean dwell time on microtubule ends [2]: 0.53 s
Substance: His-EGFP-L-TOG2-S (minimal construct of CLASP2α: short linker region, TOG2 domain and serine-arginine-rich region) (domain or fragment)
